Measurements taken from the supplement of paper PMC9170038.

Tested on: MS2 coat protein
Assay: apparent KD of MS2 coat protein; designed switch direction (-1 OFF switch, 1 ON switch): -1; higher = weaker reporter binding
Method in brief: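 Designed RNA switches sharing common flanks were transcribed on Illumina chips by stalled E. coli RNA polymerase. They were titrated with SNAP-549-labelled MS2 coat protein, from 0.7 or 1.5 nM doubling to 3 µM, in Tris-HCl pH 7.5 buffer with KCl, MgCl2, BSA, DTT, tRNA and Tween-20. Titrations ran without input, with 200 uM small-molecule ligand, or with an oligonucleotide input. The apparent KD of each design is the median over its clusters, after curve-fitting of normalised cluster fluorescence.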

[1] = input ligand: microRNA oligo, concentration not stated
[2] = Eterna round: R95, input ligand: FMN 200 uM
[3] = Eterna round: R95, input ligand: microRNA oligo, concentration not stated
[4] = Eterna round: R95, input ligand: none

Row | Sequence | apparent KD of MS2 coat protein (input ligand: FMN 200 uM) | apparent KD of MS2 coat protein (input ligand: none) | apparent KD of MS2 coat protein [3] | further results
1 | GCGCACCUACCAAAAGGUAGGCCAACAUGAGGAUCACCCAUGUAGGAUAUCGAUUGCUUUGCAGUCGAGAAGGGCAUGAUGCGC [JL ENG3 3.80 Mod 20] (Eterna round: R96, puzzle: Exclusion NG 3) | 17.2 nM | 19.9 nM | – | apparent KD of MS2 coat protein [1]: 14.4 nM
2 | GAACUGAGGCAAAGCUUUAGUCGUACAUGAGGAUCACCCAUGUAGGAUAUGGUAGGCAAAGCAUACCAGAAGGACAGAGUGAUC [Mat - Exclusion NG 3 - Mod of JL - D61] (Eterna round: R96, puzzle: Exclusion NG 3) | 877 nM | 476 nM | – | apparent KD of MS2 coat protein [1]: 313 nM
3 | AAAUCGUGAGGAUAUCCAAUAUAUGACAUGAGGAUCACCCAUGUUUCCACUCGUACCUCCGGAGAAGGCACAAUAA [Ex5 #75] (Eterna round: R97, puzzle: Exclusion 5) | 27.2 nM | 27.1 nM | – | –
4 | CUGAGGUAGCGGUCCUAUUACAUGAGGAUCACCCAUGUACCUUGCUUCGAGCUUUUAGCUCGUCUUAUGAUUCUCGG [Mat - Sensor v3 - turn-off var 1 - JL Mod - D38] (puzzle: Sensor v3, turn-off variant 1) | – | – | 447 nM | apparent KD of MS2 coat protein [2]: 277 nM; apparent KD of MS2 coat protein [4]: 381 nM
5 | UACAUGAGGAUCACCCAUGUUUUGUCGUGUAUGGUAUUUAUCUAGGAUAUCAUUUGAUUUAGUUAUGAGAAGGAGAAUAUUAAU [JMF's solution 86] (Eterna round: R96, puzzle: Exclusion NG 3) | 33.6 nM | 29.9 nM | – | apparent KD of MS2 coat protein [1]: 17.2 nM
6 | UAUAUGUGAGGAUAUCAGGUGUGCUAGCGUACUGGUACAUCUGAGAAGGCACAUGAGGAUCACCCAUGUAUCUU [JL-ex4-3.25 Brourd mod] (puzzle: Exclusion 4) | – | – | 25.5 nM | –
7 | UCAAGUUUUUAGAUUCUUAACAUGAGGAUCACCCAUGUGCUCGUCUUGUUGUACUAUCACUCGAAAGUGAUAGUACA (Eterna round: R97, puzzle: Sensor, turn-off variant 1) | 43.5 nM | 46.4 nM | – | –
8 | CUUAGACAUGAGGAUCACCCAUGUCAGGAUAUCGUCUACCUGUGGAAACACAGGUAGACGAGAAGGGAUGUGUU [SS1 Omei 3] (puzzle: Exclusion 1) | – | – | 37.8 nM | –
9 | GGUACUAACACGAUAGUGUUAGUACUAUAAGCUUGUGUUACAUGAGGAUCACCCAUGUCCUCAUAAGCUCGUCUUAU [Mat - Sensor v3 - Turn-off var 2 - D77] (puzzle: Sensor v3, turn-off variant 2) | – | – | 50.2 nM | apparent KD of MS2 coat protein [2]: 95.9 nM; apparent KD of MS2 coat protein [4]: 98.6 nM
10 | CUGAGGUAGCGGUCCUAUGACAUGAGGAUCACCCAUGUACCUUGCUACGAGCUUUUUGCUCGUCUUAUAAUUCUCGG [JL Atriat mod 3] (puzzle: Sensor v3, turn-off variant 1) | – | – | 91.5 nM | apparent KD of MS2 coat protein [2]: 466 nM; apparent KD of MS2 coat protein [4]: 526 nM
11 | GCAGUCAAAGUGAGGAUAUCUAGAGCGAUAGCUCUAGAGAAGGCACAUGAGGAUCACCCAUGUGAUCAGACUGC [BmEx4/7-A4'1] (Eterna round: R97, puzzle: Brourd's mod of Exclusion 4) | 605 nM | 257 nM | – | –
12 | CGGUGCUGAGGAUAUACAUGAGGAUCACCCAUGUGUUCUAGCUAGCGUACUGGCAGAUGUAGAAGGCGGUACUG [JL-ex3-3.43 Brourd mod] (puzzle: Exclusion 3) | – | – | 17.1 nM | –
13 | CCGAAAAGGAAGGAUAUGCUUGACGAAAGUCAAGCAGAAGGUCCUACAUGAGGAUCACCCAUGUGGUCCUUCGG [Mat - Exclusion 6 - Eli Mod - D36] (Eterna round: R97, puzzle: Exclusion 6) | 629 nM | 450 nM | – | –
14 | AGCUGUGGCCGAGGAUAUCUACCUUCAAUAACCGAAAUAUAAUCGGACAUGAGGAUCACCCAUGUAGAGAAGGCGGUCUCAGCA [Eli eng2 - 086] (Eterna round: R96, puzzle: Exclusion NG 2) | – | – | – | apparent KD of MS2 coat protein [1]: 10.9 nM
15 | ACAUGUCAUCGAGGAUAUUGUACACAUGAGGAUCACCCAUGUAUUCGGUUGCUCUAGCAUGAGUUCGAGAAGGCGAUGUACAUU [Ex NG2 #83] (Eterna round: R96, puzzle: Exclusion NG 2) | 153 nM | 194 nM | – | apparent KD of MS2 coat protein [1]: 134 nM
16 | CUUCGGCGAGGAUAUUACGAGAACGACAUGAGGAUCACCCAUGUGAUCGAGGUUGCCUCGUAAGAAGGCGCAUAUA [Reederedle] (Eterna round: R97, puzzle: Exclusion 5) | 1050 nM | 244 nM | – | –
17 | GGGCCCGGAGGAUAUACAAUGGGUUUGGGAAACCGGGCCCUACAUGAGGAUCACCCAUGUAGAAGGCCGGGCCC [-41, -38.9 kcal A 24%, 5b,0] (Eterna round: R97, puzzle: Exclusion 2) | 39.9 nM | 34.2 nM | – | –
18 | GCACGGUAAGUGAGGAUAUACCUCUGGAUACAGAGGUAGAAGGCACAUGAGGAUCACCCAUGUCCAAGCCGUGC [Fiskers BMX 4 - 84] (puzzle: Brourd's mod of Exclusion 4) | – | – | 22.8 nM | –

Row | Sequence | apparent KD of MS2 coat protein (input ligand: FMN 200 uM) | apparent KD of MS2 coat protein (input ligand: none) | apparent KD of MS2 coat protein [3] | further results
19 | AGCAAGCUUUUAAGAUCCUACAUGAGGAUCACCCAUGUGCUCGUCUUGUAACGUACUGUGACGAAAGUCACGGUACG [JL TOV1 3.31] (Eterna round: R97, puzzle: Sensor, turn-off variant 1) | 374 nM | 506 nM | – | –
20 | AAGAAACAUGAGGAUCACCCAUGUGAGGAUAUGAAAAAGAAAAGAAAAGAAAGAAGGUUCAGAAGGCACAAAGG [salish99-ex1_r3_027] (Eterna round: R96, puzzle: Exclusion 1) | – | – | – | apparent KD of MS2 coat protein [1]: 25.4 nM
21 | CCAAGCUUAUUCAUUAACCACAUGAGGAUCACCCAUGUCUAGGCAAUUAUGACUUGCCCAUCAGGUGCUCGUCUUAU [Sensor-V1 #33] (Eterna round: R97, puzzle: Sensor, turn-off variant 1) | 68.7 nM | 72.3 nM | – | –
22 | UUUCUCUGUGUGAGGAUAUACUUGUUUGGGUUUUUGUAGAAGGCACAUGAGGAUCACCCAUGUAUUUUGUCGUG [JR_BME4_Sub019] (puzzle: Brourd's mod of Exclusion 4) | – | – | 31.5 nM | –
23 | AGAUGUACCUAGGAUAUCCGUCUUAUUGGACUAGGAGAAGGAGGUACAUGAGGAUCACCCAUGUAUGACUCCUG [Veisteer] (puzzle: Exclusion 6) | – | – | 9.08 nM | –
24 | CACAAGCUUUUUUGAUGCAUUUUAGUUGGUUUCCUUUUUACAUGAGGAUCACCCAUGUUUAUGAAGCUCGAUCUUUU [JR_SV3TOV2_Sub079] (puzzle: Sensor v3, turn-off variant 2) | – | – | 49.2 nM | apparent KD of MS2 coat protein [2]: 54.3 nM; apparent KD of MS2 coat protein [4]: 60.1 nM
25 | UAACCUAUUGUCAGGAUAUCUACGUGGUAUCAUGAGGAGAAGGGACAUGAGGAUCACCCAUGUGGAAGGGAAAA [Beques] (puzzle: Brourd's mod of Exclusion 4) | – | – | 31.1 nM | apparent KD of MS2 coat protein [2]: 60.2 nM; apparent KD of MS2 coat protein [4]: 48.3 nM
26 | UCCUAACAUGAGGAUCACCCAUGUCAGGAUAUCUACGUCAGAACCACGUAUGUAGGCGAGAGAAGGGACAGAGG [EX1 C.14] (Eterna round: R97, puzzle: Exclusion 1) | 21 nM | 17.4 nM | – | –
27 | UUUUAGGUAGGAUAUACAUUUUUUUUAUUAUCCUCAUUAUUACAUGAGGAUCACCCAUGUAGAAGGACCAUUUU [My Design] (puzzle: Exclusion 2) | – | – | 181 nM | –
28 | UACAUGAGGAUCACCCAUGUUUUAUCAUGUGUAAUAAUAAUGUAGGAUAUGUAUUUAUUUAUUUAACAGAAGGACAAUAAUAAA [JMF's solution 3] (Eterna round: R96, puzzle: Exclusion NG 3) | 462 nM | 423 nM | – | apparent KD of MS2 coat protein [1]: 435 nM
29 | GGUGGACAUGAGGAUCACCCAUGUGAGGAUAUCGGCUGGUACGUGUUGGCUGGCAUCUCGAGAAGGCACAUCGU [Exclusion 1 V64] (puzzle: Exclusion 1) | – | – | 44.8 nM | –
30 | UAUGAAGUAGGAUAUACAUGAGGAUCACCCAUGUCCUUACUGAGACCGGGCACGGCUCGUAGAAGGGCUUUCGA [Eternabot (L2) Solution 50] (Eterna round: R97, puzzle: Exclusion 3) | 36.7 nM | 40.7 nM | – | –
31 | AGCCAAGCAGGAUAUAUCCGGGAUAACAUGAGGAUCACCCAUGUGACCGAUUGAUAUCCUAUAGAAGGGCUUGGGA [Mod of ViennaUCT 23 - Jieux - Exclusion 5] (Eterna round: R97, puzzle: Exclusion 5) | 135 nM | 43.5 nM | – | –
32 | GGGCGGCGGACCGUGGCUUUUUGCUCGUCUUGUGCUUCGACAUGAGGAUCACCCAUGUGGUGGUGGUCCGUUGUGGG [Grok-var2-14 mod JAL] (puzzle: Sensor v3, turn-off variant 2) | – | – | 12.6 nM | apparent KD of MS2 coat protein [2]: 18.2 nM; apparent KD of MS2 coat protein [4]: 14.7 nM
33 | AAGCCCUGAGGAUAUCCCAACUCGCACAUGAGGAUCACCCAUGUCCUCCUCCGGGCUUCGGGAGAAGGCAGGUCUC [Megrez-7.8] (Eterna round: R97, puzzle: Exclusion 5) | 186 nM | 25.7 nM | – | –
34 | CGUGAGUCAGGAUAUGCCUGUACUAACUUGAGGAUCACCCAAGUGUCCUCCCGGUGCAAUGCAGAAGGGACGACGA [Oninlein] (Eterna round: R97, puzzle: Exclusion 5) | 765 nM | 74.2 nM | – | –
35 | CUCCGGCGUGUAGGAUAUGGAUCCGAUUAGGAUCCAGAAGGACAUGAGGAUCACCCAUGUACAUGUAAACGGUCGUCACCGGGC [salish99_ExNG1_r04_207] (Eterna round: R96, puzzle: Exclusion NG 1) | 134 nM | 61.3 nM | – | apparent KD of MS2 coat protein [1]: 26.2 nM
